In patent US20260256934A1 (Daiichi Sankyo, published 2026):

Experiments:
[1] = target: T1, Recombinant Human Fc gammaRIIA/CD32a (R167) Protein (R&D systems) (human, UniProt P12318 36-218); assay: SPR (Biacore T200); FcγRIIa immobilised directly on CM5, antibody as analyte 0.9-4.7 µM
T1 construct: Bought protein; also called human FcγRIIa
T1 sequence (looked up): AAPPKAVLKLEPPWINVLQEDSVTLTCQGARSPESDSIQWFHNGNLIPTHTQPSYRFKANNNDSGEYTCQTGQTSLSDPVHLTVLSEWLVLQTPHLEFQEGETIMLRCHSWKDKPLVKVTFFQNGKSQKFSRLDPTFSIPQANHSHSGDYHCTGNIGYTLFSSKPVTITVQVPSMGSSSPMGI

[2] = target: T2, Recombinant Human Fc gamma RIIB/C (CD32b/c) Protein (R&D systems) (human, UniProt P31994 46-217); assay: SPR (Biacore T200); FcγRIIb/c immobilised directly on CM5, antibody as analyte 0.9-4.7 µM
T2 construct: Bought protein; also called human FcγRIIb/c
T2 sequence (looked up): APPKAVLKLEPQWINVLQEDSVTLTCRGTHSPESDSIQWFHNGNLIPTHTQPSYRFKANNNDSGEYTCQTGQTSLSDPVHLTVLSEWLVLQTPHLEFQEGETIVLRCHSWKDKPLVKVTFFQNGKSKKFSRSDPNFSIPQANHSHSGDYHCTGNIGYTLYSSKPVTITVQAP

[3] = target: T3, Recombinant Human Fc gamma RI/CD64 Protein (R&D systems) (human, UniProt P12314 16-288); assay: SPR (Biacore T200); His-tagged FcγRI captured on anti-His chip, antibody as analyte 0.3-4.7 µM
T3 construct: His-tagged; also called human FcγRI; His-tagged human FcγRI
T3 sequence (P12314 16-288 limits assumed): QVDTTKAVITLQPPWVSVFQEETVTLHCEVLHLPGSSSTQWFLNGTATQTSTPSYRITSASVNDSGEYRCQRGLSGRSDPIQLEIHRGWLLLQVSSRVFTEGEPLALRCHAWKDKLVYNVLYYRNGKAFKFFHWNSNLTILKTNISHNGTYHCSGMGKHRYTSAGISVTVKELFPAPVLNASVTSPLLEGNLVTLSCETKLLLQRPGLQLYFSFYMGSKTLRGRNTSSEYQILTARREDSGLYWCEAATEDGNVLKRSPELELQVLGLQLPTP

[4] = target: T3, Recombinant Human Fc gamma RI/CD64 …; assay: SPR (Biacore T200) as in Test Example 15; RU at 4.7 µM conjugate
[5] = target: T1, Recombinant Human Fc gammaRIIA/CD32a …; assay: SPR (Biacore T200) as in Test Example 16; RU at 4.7 µM conjugate
[6] = target: T2, Recombinant Human Fc gamma RIIB/C …; assay: SPR (Biacore T200) as in Test Example 17; RU at 4.7 µM conjugate

Measured: binding result

B1: anti-EGFR antibody B (Vectibix) (antibody, human IgG2, kappa)
heavy: QVQLQESGPGLVKPSETLSLTCTVSGGSVSSGDYYWTWIRQSPGKGLEWIGHIYYSGNTNYNPSLKSRLTISIDTSKTQFSLKLSSVTAADTAIYYCVRDRVTGAFDIWGQGTMVTVSSASTKGPSVFPLAPCSRSTSESTAALGCLVKDYFPEPVTVSWNSGALTSGVHTFPAVLQSSGLYSLSSVVTVPSSNFGTQTYTCNVDHKPSNTKVDKTVERKCCVECPPCPAPPVAGPSVFLFPPKPKDTLMISRTPEVTCVVVDVSHEDPEVQFNWYVDGVEVHNAKTKPREEQFNSTFRVVSVLTVVHQDWLNGKEYKCKVSNKGLPAPIEKTISKTKGQPREPQVYTLPPSREEMTKNQVSLTCLVKGFYPSDIAVEWESNGQPENNYKTTPPMLDSDGSFFLYSKLTVDKSRWQQGNVFSCSVMHEALHNHYTQKSLSLSPGK
light: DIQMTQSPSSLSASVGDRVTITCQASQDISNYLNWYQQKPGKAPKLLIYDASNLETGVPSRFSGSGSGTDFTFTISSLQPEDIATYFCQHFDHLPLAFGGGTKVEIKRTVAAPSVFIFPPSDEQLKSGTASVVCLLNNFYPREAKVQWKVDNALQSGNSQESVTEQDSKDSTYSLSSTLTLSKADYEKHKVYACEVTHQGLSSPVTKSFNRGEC
notes: Commercial Vectibix (IgG2), buffer-exchanged into HBS-EP+; also called anti-EGFR antibody (IgG2); IgG2
binds: [1] | [2] | [3]

B2: anti-EGFR antibody B-CDN conjugate 2 (antibody, human IgG2, kappa)
heavy: B1 heavy
light: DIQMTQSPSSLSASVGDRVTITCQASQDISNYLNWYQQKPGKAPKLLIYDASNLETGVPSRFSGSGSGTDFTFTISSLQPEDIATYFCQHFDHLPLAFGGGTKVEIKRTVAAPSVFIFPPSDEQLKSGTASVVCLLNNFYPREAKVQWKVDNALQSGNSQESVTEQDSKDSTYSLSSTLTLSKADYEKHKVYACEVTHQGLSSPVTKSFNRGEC
modifications: CDN drug-linker 17a conjugated through the remodeled N297 glycan (MSG1 type); average number of conjugated drugs 1.9
notes: Antibody-drug conjugate of Vectibix (IgG2), DAR about 2; Light chain is inferred as for m1; also called antibody-drug conjugate 8
binds: [4] | [5] | [6]

B3: anti-EGFR antibody 1-CDN conjugate 1 (antibody, human IgG1, kappa, L234A L235A)
heavy: QVQLQESGPGLVKPSETLSLTCTVSGGSVSSGDYYWTWIRQSPGKGLEWIGHIYYSGNTNYNPSLKSRLTISIDTSKTQFSLKLSSVTAADTAIYYCVRDRVTGAFDIWGQGTMVTVSSASTKGPSVFPLAPSSKSTSGGTAALGCLVKDYFPEPVTVSWNSGALTSGVHTFPAVLQSSGLYSLSSVVTVPSSSLGTQTYICNVNHKPSNTKVDKRVEPKSCDKTHTCPPCPAPEAAGGPSVFLFPPKPKDTLMISRTPEVTCVVVGVSHEDPEVKFNWYVDGVEVHNAKTKPREEQYNSTYRVVSVLTVLHQDWLNGKEYKCKVSNKALPAPIEKTISKAKGQPREPQVYTLPPSREEMTKNQVSLTCLVKGFYPSDIAVEWESNGQPENNYKTTPPVLDSDGSFFLYSKLTVDKSRWQQGNVFSCSVMHEALHNHYTQKSLSLSPGK
light: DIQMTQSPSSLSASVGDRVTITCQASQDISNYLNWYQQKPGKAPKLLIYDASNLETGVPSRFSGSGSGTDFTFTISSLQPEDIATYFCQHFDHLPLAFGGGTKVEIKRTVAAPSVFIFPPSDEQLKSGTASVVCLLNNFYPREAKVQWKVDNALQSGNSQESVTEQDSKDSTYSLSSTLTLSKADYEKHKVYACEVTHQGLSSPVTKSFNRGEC
modifications: CDN drug-linker 17a conjugated through the remodeled N297 glycan (SG type); average number of conjugated drugs 3.7
notes: also called modified anti-EGFR antibody 1-CDN conjugate 1; antibody-drug conjugate 1
binds: [4] | [5] | [6]

B4: modified anti-EGFR antibody 1 (antibody, human IgG1, kappa, L234A L235A)
heavy: B3 heavy
light: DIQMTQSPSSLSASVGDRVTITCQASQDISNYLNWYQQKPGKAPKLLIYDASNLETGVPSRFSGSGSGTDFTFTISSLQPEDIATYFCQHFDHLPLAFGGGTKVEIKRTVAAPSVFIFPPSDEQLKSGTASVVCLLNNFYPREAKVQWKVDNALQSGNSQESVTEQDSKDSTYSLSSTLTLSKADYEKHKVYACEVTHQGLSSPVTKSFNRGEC
notes: IgG1 with L234A/L235A/D265G (LALA-DG) introduced into anti-EGFR antibody A; also called LALA-DG; LALA-DG mutant anti-EGFR antibody
binds: [1] | [2] | [3]

B5: anti-EGFR antibody 1-CDN conjugate 2 (antibody, human IgG1, kappa, L234A L235A)
heavy: B3 heavy
light: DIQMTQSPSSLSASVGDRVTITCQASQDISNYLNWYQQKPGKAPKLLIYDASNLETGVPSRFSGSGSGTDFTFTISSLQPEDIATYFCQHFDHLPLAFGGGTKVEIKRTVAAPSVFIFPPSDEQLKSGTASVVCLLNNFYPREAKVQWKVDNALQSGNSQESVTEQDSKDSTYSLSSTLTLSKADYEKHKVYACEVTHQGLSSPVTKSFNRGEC
modifications: CDN drug-linker 17a conjugated through the remodeled N297 glycan (MSG1 type); average number of conjugated drugs 1.9
notes: also called modified anti-EGFR antibody 1-CDN conjugate 2; antibody-drug conjugate 2
binds: [4] | [5] | [6]
